Sequences and labels used below:
B1: VH1 + VL3 (antibody, V domains shown)
VH: QVQLVQSGAEVKKPGSSVKVSCKASGYAFSNFWMNWVRQAPGQGLEWMGQIYPGDGDTNYNGKFKGRVTITADKSTSTAYMELSSLRSEDTAVYYCARSYYRSAWFAYWGQGTLVTVSS
VL: EIVLTQSPATLSLSPGERATLSCRASQSIGTSIHWYQQKPGQAPRLLIYYASESISGIPARFSGSGSGTDFTLTISSLEPEDFAVYYCQQSNNWPLTFGGGTKVEIK
B2: VH5 + VL2 (antibody, V domains shown)
VH: EVQLVQSGAEVKKPGESLKISCKGSGYAFSNFWMNWVRQMPGKGLEWMGQIYPGDGDTNYNGKFKGQVTISADKSISTAYLQWSSLKASDTAMYYCARSYYRSAWFAYWGQGTLVTVSL
VL: B1 VL with L4M, L13V, D70E, E79Q, P80S
B3: VH2 + VL3 (antibody, V domains shown)
VH: B1 VH with S16A, I70M, A72R, K74T, A79V
VL: B1 VL
B4: VH1 + VL4 (antibody, V domains shown)
VH: B1 VH
VL: AIQLTQSPSSLSASVGDRVTITCRASQSIGTSIHWYQQKPGKAPKLLIYYASESISGVPSRFSGSGSGTDFTLTISSLQPEDFATYYCQQSNNWPLTFGGGTKVEIK
B5: VH5 + VL3 (antibody, human IgG1, kappa, V domains shown)
VH: EVQLVQSGAEVKKPGESLKISCKGSGFTFNYFWIEWVRQMPGKGLEWMGEILPGTGSTNYNEKFKGQVTISADKSISTAYLQWSSLKASDTAMYYCARYDYTSSMDYWGQGTLVTVSS
VL: EIVLTQSPATLSLSPGERATLSCRASESVQYSGTSLMHWYQQKPGQAPRLLIYGASNVETGIPARFSGSGSGTDFTLTISSLEPEDFAVYYCQQNWKVPWTFGQGTKVEIKR
notes: Full-length humanized IgG expressed in HEK293 and purified on protein A. Constant regions not specified; also called #23 (inferred from 5x5 numbering)
B6: Chimeric IgG (antibody, V domains shown)
VH: QVQLQQSGAELMKPGASVKISCKAIGFTFNYFWIEWVKQRPGHGLEWIGEILPGTGSTNYNEKFKGKAIFTADTSSNTAYMQLRSLTSEDSAVYYCVRYDYTSSMDYWGQGTSVTVSS
VL: DIVLTQSPGSLAVSLGQSVTISCRASESVQYSGTSLMHWYQQKPGQPPKLLIYGASNVETGVPARFSGSGSGTDFSLNIHPVEEDDIAMYFCQQNWKVPWTFGGGTKLEIKR
notes: Chimera of the parental mouse antibody with a human Fc (captured by anti-human Fc); also called chimeric antibody; parent chimeric antibody

Positions count from the first letter of the chain named.

One assay deals with T1, MUC1 on HCT116/MUC1 cells (human, UniProt P15941 24-1255). The assay can be described thus: flow cytometry on HCT116/MUC1 cells; antibody at 33.33333 nM. On the technique in general: Flow cytometry measures light scatter and fluorescence of single cells or particles in a stream.
T1 sequence (P15941 24-1097, chain 1 of 2): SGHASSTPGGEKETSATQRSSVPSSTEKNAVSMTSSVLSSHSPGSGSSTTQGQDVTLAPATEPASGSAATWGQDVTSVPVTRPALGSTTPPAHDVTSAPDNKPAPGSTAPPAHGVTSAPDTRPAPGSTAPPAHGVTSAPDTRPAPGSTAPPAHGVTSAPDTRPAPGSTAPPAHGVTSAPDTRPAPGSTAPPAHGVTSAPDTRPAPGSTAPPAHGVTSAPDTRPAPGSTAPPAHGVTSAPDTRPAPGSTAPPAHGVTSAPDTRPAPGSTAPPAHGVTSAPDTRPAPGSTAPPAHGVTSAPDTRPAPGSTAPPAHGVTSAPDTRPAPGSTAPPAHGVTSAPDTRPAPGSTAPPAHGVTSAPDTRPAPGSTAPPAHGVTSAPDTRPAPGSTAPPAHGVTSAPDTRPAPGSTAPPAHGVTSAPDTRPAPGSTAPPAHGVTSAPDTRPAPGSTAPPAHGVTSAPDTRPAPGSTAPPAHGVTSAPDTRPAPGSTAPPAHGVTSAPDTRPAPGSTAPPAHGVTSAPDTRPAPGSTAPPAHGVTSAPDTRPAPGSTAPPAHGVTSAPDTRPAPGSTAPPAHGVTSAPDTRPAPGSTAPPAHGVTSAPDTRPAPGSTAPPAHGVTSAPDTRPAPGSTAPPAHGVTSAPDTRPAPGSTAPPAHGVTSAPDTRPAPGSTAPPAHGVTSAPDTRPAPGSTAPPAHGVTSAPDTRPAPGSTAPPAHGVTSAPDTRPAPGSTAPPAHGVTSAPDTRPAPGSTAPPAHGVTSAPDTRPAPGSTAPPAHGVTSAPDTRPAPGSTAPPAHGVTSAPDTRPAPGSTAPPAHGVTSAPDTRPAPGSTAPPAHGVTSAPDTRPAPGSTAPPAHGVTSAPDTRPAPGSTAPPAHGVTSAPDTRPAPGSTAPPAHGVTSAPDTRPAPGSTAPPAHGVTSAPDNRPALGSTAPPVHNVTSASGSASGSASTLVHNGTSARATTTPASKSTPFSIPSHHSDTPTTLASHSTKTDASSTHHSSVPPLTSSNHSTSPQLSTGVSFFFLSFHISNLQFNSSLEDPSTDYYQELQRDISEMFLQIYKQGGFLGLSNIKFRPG
T1 sequence (P15941 1098-1255, chain 2 of 2): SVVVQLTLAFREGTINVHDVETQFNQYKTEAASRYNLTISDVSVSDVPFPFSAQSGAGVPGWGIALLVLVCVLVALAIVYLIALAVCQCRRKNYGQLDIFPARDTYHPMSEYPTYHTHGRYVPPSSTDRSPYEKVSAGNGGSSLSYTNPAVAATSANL
In turn, B1 yielded an FACS titration signal of 41.

Regarding B2, the FACS titration signal turned out to be 48.1.

B3 displayed an FACS titration signal of 43.

B4 had an FACS titration signal of 57.8.

The target in another assay is T2, MUC1 on HCT116/MUC1 cells (human, UniProt P15941 24-1255).
T2 construct: whole, on cells; Human colon cancer cell line engineered to express MUC1
In words: flow cytometry titration on HCT116/MUC1 cells. As for the experimental part:
(§1) FACS titration of humanized antibodies. For affinity ranking of humanized antibodies to HCT116/MUC1 cells (a human colon cancer cell line engineered to express MUC1), the purified antibodies were subject to FACs titration. In brief, HCT116/MUC1 cells were cultured and harvested by centrifugation. About 2.5×10⁵ cells per well were washed with PBS twice and incubated in 200 μl of serial dilutions of antibodies for 30 min at 4° C. After washing with PBS., secondary antibody (3 μg Goat anti-Human IgG(H+L) I Fluor 647) was added to the cells and incubated for 30 min at 4° C. After washing with PBS, cells were analyzed for binding (EC₅₀) by using FACS Calibur (BD Bioscience, San Jose, Calif.) and Flowjo software.
(§2) FACS titration of humanized antibodies. Each of the 7 antibodies was titrated for its binding capacity to HCT116/MUC1 cells at various concentrations and the results are mentioned in Table 8 and with a graphical representation in FIG. 5.
T2 sequence (P15941 24-1255): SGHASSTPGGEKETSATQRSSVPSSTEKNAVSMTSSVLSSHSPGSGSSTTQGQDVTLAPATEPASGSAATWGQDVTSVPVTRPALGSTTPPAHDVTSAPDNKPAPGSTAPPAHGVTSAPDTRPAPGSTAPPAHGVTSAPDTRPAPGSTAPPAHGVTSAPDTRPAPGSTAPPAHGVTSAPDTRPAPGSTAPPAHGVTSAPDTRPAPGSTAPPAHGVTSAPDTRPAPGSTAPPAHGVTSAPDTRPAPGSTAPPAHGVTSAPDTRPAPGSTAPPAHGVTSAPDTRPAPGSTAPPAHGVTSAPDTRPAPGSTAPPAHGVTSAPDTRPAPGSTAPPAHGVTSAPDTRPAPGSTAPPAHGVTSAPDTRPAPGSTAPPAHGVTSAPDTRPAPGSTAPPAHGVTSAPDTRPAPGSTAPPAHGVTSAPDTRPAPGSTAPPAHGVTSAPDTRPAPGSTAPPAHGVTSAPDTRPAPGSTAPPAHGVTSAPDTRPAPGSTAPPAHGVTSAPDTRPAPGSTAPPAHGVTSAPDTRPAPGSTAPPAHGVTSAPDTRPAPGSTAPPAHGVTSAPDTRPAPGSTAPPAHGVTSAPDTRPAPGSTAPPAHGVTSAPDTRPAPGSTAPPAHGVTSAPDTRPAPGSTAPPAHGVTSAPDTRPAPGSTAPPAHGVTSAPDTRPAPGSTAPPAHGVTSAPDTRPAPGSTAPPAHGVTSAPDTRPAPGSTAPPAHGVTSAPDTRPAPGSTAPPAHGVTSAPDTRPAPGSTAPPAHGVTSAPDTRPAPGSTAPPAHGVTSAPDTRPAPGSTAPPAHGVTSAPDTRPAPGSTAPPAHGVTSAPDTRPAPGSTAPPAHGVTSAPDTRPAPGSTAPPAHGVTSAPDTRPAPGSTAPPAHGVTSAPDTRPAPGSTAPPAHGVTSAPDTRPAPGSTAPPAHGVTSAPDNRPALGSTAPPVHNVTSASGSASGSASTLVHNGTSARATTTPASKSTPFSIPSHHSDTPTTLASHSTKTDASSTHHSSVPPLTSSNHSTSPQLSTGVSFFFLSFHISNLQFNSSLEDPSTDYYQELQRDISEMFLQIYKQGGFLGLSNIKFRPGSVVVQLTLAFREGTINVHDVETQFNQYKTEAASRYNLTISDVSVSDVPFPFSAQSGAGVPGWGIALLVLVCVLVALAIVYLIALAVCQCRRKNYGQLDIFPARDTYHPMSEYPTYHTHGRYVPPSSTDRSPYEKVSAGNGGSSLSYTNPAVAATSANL
One may read the EC50 as the midpoint of the concentration-response curve. A higher EC50 goes with lower potency in that assay. For B5, the concentration giving a half-maximal response (EC50) is 12.2 nM.

For the molecule B6, the 50% effective concentration (EC50) came to 6.08 nM. This EC50 is about 2-fold lower than that of the molecule before.

The next assay addresses T1, MUC1 on HCT116/MUC1 cells. The assay can be described thus: flow cytometry titration on HCT116/MUC1 cells. As for the experimental part:
as §1, §2
Turning to B1, the EC50 was found to be 13.2 nM.

For B2, the EC50 came out at 7.69 nM.

Consider B3, for which the EC50 was 13.3 nM.

The molecule B4 returned a 50% effective concentration (EC50) of 9.8 nM. The EC50 values of the last two molecules are within 1.5-fold of each other.

In the next assay the target is T1, MUC1 on HCT116/MUC1 cells. In words: flow cytometry on HCT116/MUC1 cells; antibody at 300 nM.
Consider B1, for which the FACS titration signal came out at 42.

In turn, B2 returned an FACS titration signal of 46.3.

For B3, the FACS titration signal worked out at 44.1.

With B4, the FACS titration signal amounted to 53.9.

For another assay, the target named is T1, MUC1 on HCT116/MUC1 cells. The assay can be described thus: flow cytometry on HCT116/MUC1 cells; antibody at 0.045725 nM.
Take B1: the FACS titration signal was found to be 8.96.

Turning to B2, the FACS titration signal was 6.76.

Molecule B3 returned an FACS titration signal of 5.46.

Molecule B4 returned an FACS titration signal of 5.99.

The target of a further assay is T1, MUC1 on HCT116/MUC1 cells. The assay can be described thus: flow cytometry on HCT116/MUC1 cells; antibody at 0.137174 nM.
Consider B1, for which the FACS titration signal came to 9.47.

In turn, B2 registered an FACS titration signal of 9.2.

As to B3, the FACS titration signal is 9.04.

In the case of B4, the FACS titration signal stood at 5.5.

The target of the next assay is T1, MUC1 on HCT116/MUC1 cells. In words: flow cytometry on HCT116/MUC1 cells; antibody at 0.015242 nM.
B1 displayed an FACS titration signal of 5.76.

B2 displayed an FACS titration signal of 5.88.

Molecule B3 yielded an FACS titration signal of 8.96.

The molecule B4 showed an FACS titration signal of 5.73.

A further assay deals with T1, MUC1 on HCT116/MUC1 cells. In words: flow cytometry on HCT116/MUC1 cells; antibody at 0.411523 nM.
The molecule B1 registered an FACS titration signal of 6.22.

B2 came in with an FACS titration signal of 9.71.

B3 came in with an FACS titration signal of 6.48.

B4: the FACS titration signal amounted to 10.1.

Another assay addresses T1, MUC1 on HCT116/MUC1 cells. In words: flow cytometry on HCT116/MUC1 cells; antibody at 1.234568 nM.
Consider B1, for which the FACS titration signal was 7.09.

In the case of B2, the FACS titration signal is 11.8.

For B3, the FACS titration signal amounted to 10.6.

Take B4: the FACS titration signal is 7.61.

The next assay deals with T1, MUC1 on HCT116/MUC1 cells. The assay can be described thus: flow cytometry on HCT116/MUC1 cells; antibody at 3.703704 nM.
Regarding B1, the FACS titration signal came out at 10.4.

For the molecule B2, the FACS titration signal is 17.3.

With B3, the FACS titration signal was 13.9.

As for B4, the FACS titration signal worked out at 16.6.

In a further assay the target is T1, MUC1 on HCT116/MUC1 cells. In words: flow cytometry on HCT116/MUC1 cells; antibody at 100 nM.
For B1, the FACS titration signal was found to be 41.7.

B2: the FACS titration signal was 48.9.

For the molecule B3, the FACS titration signal was 43.8.

For the molecule B4, the FACS titration signal stood at 56.2.

For a further assay, the target named is T1, MUC1 on HCT116/MUC1 cells. The assay can be described thus: flow cytometry on HCT116/MUC1 cells; antibody at 11.11111 nM.
Turning to B1, the FACS titration signal was 20.2.

Molecule B2 gave an FACS titration signal of 33.4.

Turning to B3, the FACS titration signal worked out at 21.5.

The molecule B4 registered an FACS titration signal of 32.3.

The values are drawn from patent US20230265208A1 (Dana-Farber, published 2023).
